Measured values from the supplement of paper PMC9428881.
± gives the standard error.

Experiment: background-corrected fluorescence of 3'-dye-labeled ssDNA relative to brightest sequence (3'-GCGCG) (fraction); higher = brighter dye fluorescence (less quenching)
Procedure, shortened: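 By light-directed phosphoramidite synthesis, single-stranded DNA ending in a 3' Cy3 or Cy5 dye beside each of 1024 permuted pentamers was built on glass slides. Scanning at 532 or 635 nm took place before and after overnight ethylenediamine/ethanol deprotection. Data are means of 10 features per array over at least 3 syntheses. Fluorescence is corrected for unlabeled-oligo background and scaled to the brightest sequence.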

Sequence	background-corrected fluorescence (dye: Cy3 (3' terminal))	background-corrected fluorescence (dye: Cy5 (3' terminal))
TTTTTTGCTCATGATGATGCTTTTTTTTTTTTTTTAGCCA [ACCGA]	0.5 ± 0.028	0.394 ± 0.023
TTTTTTGCTCATGATCAGCATTTTTTTTTTTTTTTAGCGT [TGCGA]	0.679 ± 0.022	0.52 ± 0.023
TTTTTTGCTGCTGATGAGCATTTTTTTTTTTTTTTAACCT [TCCAA]	0.459 ± 0.016	0.36 ± 0.039
TTTTTTGCTCATCATGATGATTTTTTTTTTTTTTTAGGCC [CCGGA]	0.479 ± 0.037	0.368 ± 0.064
TTTTTTCATGATCATGATGCTTTTTTTTTTTTTTTGCGCA [ACGCG]	0.714 ± 0.027	0.657 ± 0.043
TTTTTTGCTGCTGATGCTCATTTTTTTTTTTTTTTAACAG [GACAA]	0.576 ± 0.02	0.421 ± 0.019
TTTTTGCAGCATGCTGATGATTTTTTTTTTTTTTTTTACC [CCATT]	0.388 ± 0.019	0.286 ± 0.017
TTTTTGCATGCTCAGCATCATTTTTTTTTTTTTTTTAGTG [GTGAT]	0.541 ± 0.027	0.455 ± 0.053
TTTTTGCAGCATGAGCATCATTTTTTTTTTTTTTTTTCTG [GTCTT]	0.472 ± 0.026	0.338 ± 0.046
TTTTTTGAGCATGCTGATCATTTTTTTTTTTTTTTCTACG [GCATC]	0.565 ± 0.027	0.416 ± 0.022
TTTTTTGCGCATCATCATGCTTTTTTTTTTTTTTTATGGA [AGGTA]	0.712 ± 0.02	0.599 ± 0.041
TTTTTTGCGCATGCGCATCATTTTTTTTTTTTTTTATATG [GTATA]	0.531 ± 0.013	0.407 ± 0.024
TTTTTTCATGCGCAGCAGCATTTTTTTTTTTTTTTGATTT [TTTAG]	0.531 ± 0.03	0.383 ± 0.029
TTTTTTCATGCTGCGCATGCTTTTTTTTTTTTTTTGAATA [ATAAG]	0.553 ± 0.025	0.42 ± 0.053
TTTTTTCAGCATCATCATCATTTTTTTTTTTTTTTGTGGG [GGGTG]	0.717 ± 0.024	0.586 ± 0.041
TTTTTTGATGATGATGATGCTTTTTTTTTTTTTTTCCCCA [ACCCC]	0.423 ± 0.023	0.352 ± 0.021
TTTTTTCATCATCAGCATGATTTTTTTTTTTTTTTGGGTC [CTGGG]	0.511 ± 0.03	0.377 ± 0.024
TTTTTTCATCAGCATCATCATTTTTTTTTTTTTTTGGTGG	0.629 ± 0.028	0.483 ± 0.055
TTTTTTGATGCTGCGCATGATTTTTTTTTTTTTTTCAATC [CTAAC]	0.421 ± 0.026	0.284 ± 0.013
TTTTTTGCTCATGATGATCATTTTTTTTTTTTTTTAGCCG [GCCGA]	0.554 ± 0.018	0.437 ± 0.029
TTTTTTGATGCTGCTCATGCTTTTTTTTTTTTTTTCAAGA [AGAAC]	0.683 ± 0.036	0.543 ± 0.026
TTTTTGCATGCTCATGCTGCTTTTTTTTTTTTTTTTAGAA [AAGAT]	0.639 ± 0.018	0.533 ± 0.052
TTTTTTCAGCAGCAGCATGATTTTTTTTTTTTTTTGTTTC [CTTTG]	0.409 ± 0.024	0.306 ± 0.036
TTTTTTGATGCGCATGCGCATTTTTTTTTTTTTTTCATAT [TATAC]	0.501 ± 0.036	0.397 ± 0.025
TTTTTTGCGCATGCTGATGATTTTTTTTTTTTTTTATACC [CCATA]	0.411 ± 0.027	0.295 ± 0.018
TTTTTTGATCATGATCAGCATTTTTTTTTTTTTTTCGCGT [TGCGC]	0.783 ± 0.029	0.697 ± 0.048
TTTTTTGCTGATGATGAGCATTTTTTTTTTTTTTTACCCT [TCCCA]	0.446 ± 0.023	0.34 ± 0.021
TTTTTGCATCATGAGCATCATTTTTTTTTTTTTTTTGCTG [GTCGT]	0.463 ± 0.018	0.358 ± 0.022
